Consider 1 molecule from article PMC2367712.

The target in this data set is Lsr2 P103A (Mycobacterium tuberculosis, UniProt P9WIP7 1-112, P101A). The data set can be described thus: EMSA.

B1: C42 (dsDNA)
DNA 1: AAAAATCTCTAAAAAATCTCTAAAAATCTCTAAAAAATCTCT
DNA 2: AGAGATTTTTTAGAGATTTTTAGAGATTTTTTAGAGATTTTT
As for B1, the binding result is “binds”.
